Laboratory results published in the supplement of paper PMC7877785.
± gives the uncertainty stated by the source.

Assay: self-splicing fitness, log relative to wild type (ln ratio); higher = more splicing; Tetrahymena group I intron in knt gene, E. coli kanamycin selection, DiMSum; sequences stand for … in CUCUCU…GGAGGGAAAAGUUAUCAGGCAUGCACCUGGUAGCUAGUCUUUAAACCAAUAGAUUGCAUCGGUUUAAAAGGCAAGACCGUCAAAUUGCGGGAAAGGGGUCAACAGCCGUUCAGUACCAAGUCUCAGGGGAAACUUUGAGAUGGCCUUGCAAAGGGUAUGGUAAUAAGCUGACGGACAUGGUCCUAACCACGCAGCCAAGUCCUAAGUCAACAGAUCUUCUGUUGAUAUGGAUGCAGUUCACAGACUAAAUGUCGGUCGGGGAAGAUGUAUUCUUCUCAUAAGAUAUAGUCGGACCUCUCCUUAAUGGGAGCUAGCGGAUGAAGUGAUGCAACACUGGAGCCGCUGGGAACUAAUUUGUAUGCGAAAGUAUAUUGAUUAGUUUUGGAGUACUCGUGGUCG
Procedure, shortened: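 Library with all eight P1ex-region intron nucleotides randomised, intron inside the knt kanamycin-resistance gene on pET-22b(+), in E. coli BL21(DE3). Cells grew overnight at 37°C or 30°C on LB agar with or without 25 μg/mL kanamycin (plus 100 μg/mL carbenicillin, 50 μM IPTG, 0.2% rhamnose), in six replicate transformations. Pooled colonies were amplicon-sequenced on Illumina HiSeq 2500. DiMSum fitness is the error-weighted combination of wild-type-normalised replicate fold changes, kanamycin versus none.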

| Sequence | self-splicing fitness (ln) (30 °C) | self-splicing fitness (ln) (37 °C) |
| --- | --- | --- |
| UCGGAGCAAUAUUACGACGG | -3.56 ± 0.43 | -1.36 ± 0.29 |
| UCGGAGCAAUAUUACGAGGC | -2.74 ± 0.42 | – |
| UCGGAGCAAUAUUACGAGUU | -2.79 ± 0.33 | – |
| UCGGAGCAAUAUUACGCACG | -3.16 ± 0.34 | -0.819 ± 0.16 |
| UCGGAGCAAUAUUACGCAGC | -2.31 ± 0.5 | – |
| UCGGAGCAAUAUUACGCGAG | -3.29 ± 0.45 | -1.64 ± 0.27 |
| UCGGAGCAAUAUUACGCGGA | -2.32 ± 0.33 | 0.916 ± 0.15 |
| UCGGAGCAAUAUUACGGAAC | -3.36 ± 0.38 | – |
| UCGGAGCAAUAUUACGGAAG | – | -0.371 ± 0.41 |
| UCGGAGCAAUAUUACGGAGC | – | -1.64 ± 0.4 |
| UCGGAGCAAUAUUACGGUCG | -2.01 ± 0.15 | -0.73 ± 0.25 |
| UCGGAGCAAUAUUACGUCCA | -2.06 ± 0.48 | -0.639 ± 0.37 |
| UCGUAGCAAUAUUACGAACU | -3.21 ± 0.38 | -2.63 ± 0.33 |
| UCGUAGCAAUAUUACGACAA | -2.42 ± 0.29 | -1.5 ± 0.24 |
| UCGUAGCAAUAUUACGAGAC | -1.72 ± 0.37 | -3.18 ± 0.37 |
| UCGUAGCAAUAUUACGAGGU | -3.27 ± 0.21 | -2.06 ± 0.19 |
| UCGUAGCAAUAUUACGCAGG | -2.49 ± 0.18 | -2.17 ± 0.21 |
| UCGUAGCAAUAUUACGCAUC | – | -2.63 ± 0.36 |
| UCGUAGCAAUAUUACGCCAG | -1.49 ± 0.3 | – |
| UCGUAGCAAUAUUACGCCCG | -0.251 ± 0.19 | -0.113 ± 0.17 |
| UCGUAGCAAUAUUACGCGAG | -4.07 ± 0.23 | -2.43 ± 0.16 |
| UCGUAGCAAUAUUACGCGCU | -2.31 ± 0.19 | -1.78 ± 0.22 |

| Sequence | self-splicing fitness (ln) (30 °C) | self-splicing fitness (ln) (37 °C) |
| --- | --- | --- |
| UCGUAGCAAUAUUACGCGUG | -0.861 ± 0.1 | -0.648 ± 0.096 |
| UCGUAGCAAUAUUACGGACA | -0.671 ± 0.18 | -1.49 ± 0.26 |
| UCGUAGCAAUAUUACGGAUG | – | -1.89 ± 0.47 |
| UCGUAGCAAUAUUACGUAGU | -3.61 ± 0.25 | -1.99 ± 0.13 |
| UCGUAGCAAUAUUACGUAUA | -2.92 ± 0.31 | -1.01 ± 0.28 |
| UCGUAGCAAUAUUACGUAUU | -3.9 ± 0.28 | -0.594 ± 0.14 |
| UCGUAGCAAUAUUACGUCCA | -0.914 ± 0.16 | -0.15 ± 0.17 |
| UCGUAGCAAUAUUACGUCUA | -1.48 ± 0.1 | -0.978 ± 0.12 |
| UCGUAGCAAUAUUACGUGAG | -3.55 ± 0.19 | -1.35 ± 0.15 |
| UCGUAGCAAUAUUACGUGCA | -1.18 ± 0.094 | -1.14 ± 0.12 |
| UCGUAGCAAUAUUACGUGUA | -2.75 ± 0.12 | -0.347 ± 0.11 |
| UCGUAGCAAUAUUACGUUGA | -1.59 ± 0.16 | -0.942 ± 0.14 |
| UCGUAGCAAUAUUACGUUGC | -3.02 ± 0.47 | – |
| UCGUAGCAAUAUUACGUUUG | -3.19 ± 0.18 | -1.56 ± 0.2 |
| UCUAAGCAAUAUUACGAAAU | -3.53 ± 0.32 | – |
| UCUAAGCAAUAUUACGAAGU | -1.09 ± 0.11 | -1.07 ± 0.15 |
| UCUAAGCAAUAUUACGACGC | -0.443 ± 0.12 | -0.398 ± 0.21 |
| UCUAAGCAAUAUUACGAGUA | -2.23 ± 0.15 | -1.02 ± 0.14 |
| UCUAAGCAAUAUUACGAUUU | -2.92 ± 0.24 | -1.37 ± 0.16 |
| UCUAAGCAAUAUUACGCAGC | -1.83 ± 0.23 | -2.07 ± 0.31 |
| UCUAAGCAAUAUUACGCCCG | -0.879 ± 0.21 | 0.0184 ± 0.38 |
| UCUAAGCAAUAUUACGCGCA | -0.493 ± 0.11 | -0.561 ± 0.13 |

| Sequence | self-splicing fitness (ln) (30 °C) | self-splicing fitness (ln) (37 °C) |
| --- | --- | --- |
| UCUAAGCAAUAUUACGCUAA | -3.04 ± 0.19 | -1.84 ± 0.18 |
| UCUAAGCAAUAUUACGCUAC | – | -1.73 ± 0.45 |
| UCUAAGCAAUAUUACGCUUC | -3.47 ± 0.3 | -1.9 ± 0.31 |
| UCUAAGCAAUAUUACGGCAA | -1.94 ± 0.34 | -1.22 ± 0.21 |
| UCUAAGCAAUAUUACGGGAC | -3.56 ± 0.35 | -2.34 ± 0.4 |
| UCUAAGCAAUAUUACGGGAU | -2.77 ± 0.14 | -2.67 ± 0.18 |
| UCUAAGCAAUAUUACGGGUC | -2.67 ± 0.26 | -1.16 ± 0.37 |
| UCUAAGCAAUAUUACGGUCC | – | -0.662 ± 0.27 |
| UCUAAGCAAUAUUACGGUCG | -1.34 ± 0.095 | -0.375 ± 0.13 |
| UCUAAGCAAUAUUACGUAGG | -1.65 ± 0.093 | -1.24 ± 0.15 |
| UCUAAGCAAUAUUACGUCCG | -0.454 ± 0.15 | -0.55 ± 0.14 |
| UCUAAGCAAUAUUACGUCGC | -2.06 ± 0.23 | -1.22 ± 0.25 |
| UCUAAGCAAUAUUACGUCUU | -4.03 ± 0.27 | -4.18 ± 0.46 |
| UCUAAGCAAUAUUACGUGGG | -3.09 ± 0.19 | -1.92 ± 0.2 |
| UCUAAGCAAUAUUACGUUGC | -3.92 ± 0.34 | -2.81 ± 0.29 |
| UCUCAGCAAUAUUACGAACA | -1.41 ± 0.12 | -1.01 ± 0.13 |
| UCUCAGCAAUAUUACGAAGU | -2.33 ± 0.26 | -0.109 ± 0.16 |
| UCUCAGCAAUAUUACGAAUA | -2.57 ± 0.21 | -0.0366 ± 0.13 |
| UCUCAGCAAUAUUACGACGA | -0.256 ± 0.12 | -0.879 ± 0.13 |
| UCUCAGCAAUAUUACGACGU | -0.386 ± 0.07 | -0.541 ± 0.08 |
